Measurements as given in article PMC10769282.

Each substance was assayed against SARS-CoV-2 Spike, BA.1 variant of concern, 21-amino-acid truncated form (SARS-CoV-2 (BA.1)) (UniProt P0DTC2).

Substance	IC50, neutralisation of BA.1 Spike pseudovirus
SA58 VH T53L A61S (antibody)	12 µg/mL
SA58 VH T53L A61S, VL N95V (antibody)	11 µg/mL
SA58 VL S54T (antibody)	12 µg/mL
